The text below walks through data of US20100158926A1.

The target in assay [1] is human ErbB2 ECD-myc/His fusion protein (human). Briefly: limited antigen ELISA, 31 ng/ml antigen coated, supernatant 1:25, OD 450 nm.
In assay [2] the target is human ErbB2, full length, on cells (B300.19/hErbB2 clone #44; MCF7; BT474; SKBR3) (human).
The target of assay [3] is human ErbB2 ECD-myc/His fusion protein (human). Briefly: SPR, high resolution Biacore T100; mAb captured on goat anti-human IgG, hHer-2(ECD)cMyc injected; 1:1 fit.
The target of assay [4] is human ErbB2, full length, on cells (B300.19/hErbB2 clone #44; MCF7; BT474; SKBR3) (human). The source holds these as a separate data set.
For assay [5] the target is unchanged. This is another data set of the same source.
For assay [6] the target is unchanged. This is another data set of the same source.
Assay [7] has as its target human ErbB2 ECD-myc/His fusion protein (human). Description: SPR, medium resolution Biacore 2000; mAb captured on goat anti-human IgG, ErbB2(ECD)-cMyc/His injected; 1:1 fit.
Assay [8] addresses human ErbB2, full length, on cells (B300.19/hErbB2 clone #44; MCF7; BT474; SKBR3) (human). The source holds these as a separate data set.
The target is the same in assay [9]. This is another data set of the same source.

B1: monoclonal antibody 1.39 (antibody, V domains shown)
VH: QLQLQESGPGLVKPSETLSLTCTVSGGSISSSTYYWGWIRQPPGKGLEWIGTIYYSGSTYYNPSLKSRVTISVDTSKNQFSLKLNSVTAADTAVYYCARHHWVFDYWGQGTLVTVSS
VL: EIVLTQSPDFLSVTPKEKVTITCRASQIIGSSLHWYQQKPDQSPKLLIKYASQSFSGVPSRFSGSGSGTDFTLTLNSLEAEDAATYYCHQSTILPWTFGQGTKVEIK
B1 returned an LA at 31 ng/ml in assay [1] of 2.57 OD. For the same molecule, in assay [2], the 24 hr pTyr inhibition % (line 1*39) was found to be 99%. In [3], this molecule had a Kd of 13.4 nM, a koff of 0.000214 s⁻¹ and a kon of 16000 M⁻¹ s⁻¹. In [4], this molecule had an EC50 (ng/ml) n1, inhibition of Heregulin-induced ErbB2 phosphorylation in MCF7 cells of 46.9 ng/mL and an EC50 (ng/ml) n2, inhibition of Heregulin-induced ErbB2 phosphorylation in MCF7 cells of 26.3 ng/mL. The % Inhibition @10 µg/ml (n1), ErbB2 phosphorylation in BT474 cells at 48 hours in [5] is 37%. For the same molecule, in assay [6], the N1 % Inhibition @40 µg/ml, BT474 cell proliferation worked out at 29%; the N1 EC50 (ng/ml), inhibition of BT474 cell proliferation came to 156 ng/mL; the N2 EC50 (ng/ml), inhibition of BT474 cell proliferation was found to be 42.3 ng/mL. Besides, in assay [7], the Kd came out at 2 nM, the koff was 0.000236 s⁻¹ and the kon was determined as 115000 M⁻¹ s⁻¹. In assay [8], this molecule registered a % inhibition @36 µg/ml, SKBR3 cell proliferation of 41% and an EC50 (ng/ml), inhibition of SKBR3 cell proliferation of 68.9 ng/mL. Besides, in assay [9], the % Inhibition @10 µg/ml, Heregulin-induced MCF7 cell proliferation was determined as 89% and the EC50 (ng/ml), inhibition of Heregulin-induced MCF7 cell proliferation came out at 479 ng/mL.
